To fix the notation:
B1: CPEB3 Ribozyme (parent)
chain: GGGGGCCACAGCAGAAGCGUUCACGUCGCGGCCCCUGUCAGAUUCUGGUGAAUCUGCGAAUUCUGCUGU

The values below come from the RNAGym collection of RNA variant scans (doi:10.7554/elife.80360).

The variants in the series derive from B1. The series is described as follows: self-cleavage, relative activity (ratio to wild type); higher = more cleavage; co-transcriptional.
In the case of A8G U38C, the self-cleavage stood at 0.696.

In the case of A8C U44C, the self-cleavage amounted to 0.896.

As to A8C U44A, the self-cleavage amounted to 0.944.

As to A8C C22G, the self-cleavage turned out to be 0.19.

Consider A8C C22U, for which the self-cleavage stood at 0.22.

Take A8C C22A: the self-cleavage amounted to 0.163.

Consider A8G C57G, for which the self-cleavage worked out at 0.203.

For A8G C57A, the self-cleavage turned out to be 0.126.

Consider A8C A51U, for which the self-cleavage was found to be 1.01.

Regarding A8U G30A, the self-cleavage was determined as 0.963.

In the case of A8U G30C, the self-cleavage was determined as 0.849.

With A8C A42U, the self-cleavage was 0.918.

As for A8C A42G, the self-cleavage came out at 0.939.

Turning to A8G G17U, the self-cleavage stood at 0.103.

Take A8G G17C: the self-cleavage was determined as 0.0831.

A8G G17A: the self-cleavage amounted to 0.0671.

With A8G G58C, the self-cleavage turned out to be 0.843.

Consider A8C C45A, for which the self-cleavage is 1.01.

Regarding A8C C45U, the self-cleavage was found to be 1.04.

As for A8G G65A, the self-cleavage is 0.224.

Consider A8G C27U, for which the self-cleavage came to 0.0734.

In the case of A8G C27A, the self-cleavage is 0.0861.

As to A8G G14U, the self-cleavage was 0.0849.

In the case of A8G G14C, the self-cleavage came out at 0.125.

On to A8G G14A, for which the self-cleavage is 0.13.

Consider A8G C54G, for which the self-cleavage was 0.343.

Consider A8G C54A, for which the self-cleavage was determined as 0.331.

Turning to A8G C54U, the self-cleavage stood at 0.805.

For the variant A8G C22G, the self-cleavage is 0.0752.

In the case of A8G C22U, the self-cleavage was found to be 0.074.

In the case of A8G C22A, the self-cleavage came out at 0.136.

Take A8G G25U: the self-cleavage amounted to 0.1.

Regarding A8G G25C, the self-cleavage was determined as 0.0474.

In the case of A8G G25A, the self-cleavage was 0.113.

Take A8C C66U: the self-cleavage was 1.02.

In the case of A8C C66G, the self-cleavage came to 0.871.

Consider A8C C33G, for which the self-cleavage is 0.527.

Consider A8C C33A, for which the self-cleavage came out at 0.897.

Turning to A8U A13C, the self-cleavage amounted to 0.855.

For A8U A13G, the self-cleavage was 1.02.

For A8G G28U, the self-cleavage amounted to 0.137.

As for A8G G28C, the self-cleavage came to 0.102.

As to A8G G28A, the self-cleavage was 0.0955.

On to A8G U61G, for which the self-cleavage turned out to be 0.284.

On to A8G U61C, for which the self-cleavage was 0.142.

A8U A42U: the self-cleavage was determined as 0.995.

For A8U A42C, the self-cleavage stood at 0.972.

A8U G14U: the self-cleavage was determined as 0.785.

Consider A8U G14A, for which the self-cleavage is 0.827.

In the case of A8G U64A, the self-cleavage was 0.242.

Regarding A8G U64C, the self-cleavage amounted to 0.361.

For A8G U46A, the self-cleavage was 0.99.

A8G U46G: the self-cleavage was determined as 0.86.

Consider A8G U46C, for which the self-cleavage was determined as 0.83.

Turning to A8U G17U, the self-cleavage is 0.491.

As for A8U G17C, the self-cleavage was determined as 0.141.

For the variant A8C U67A, the self-cleavage is 1.04.

In the case of A8C C35G, the self-cleavage was 0.421.

In the case of A8C C35U, the self-cleavage was determined as 0.976.

As for A8C A60U, the self-cleavage was found to be 0.413.

In the case of A8C A60G, the self-cleavage was 0.953.

In the case of A8C A60C, the self-cleavage worked out at 0.382.

On to A8C C32U, for which the self-cleavage was 0.954.

For A8C C32G, the self-cleavage came to 0.227.

Take A8C C9G: the self-cleavage amounted to 0.922.

In the case of A8C C9A, the self-cleavage worked out at 1.01.

Consider A8C C9U, for which the self-cleavage was 1.01.

Turning to A8U C18A, the self-cleavage is 0.177.

As for A8U C18G, the self-cleavage was 0.142.

Turning to A8C U46A, the self-cleavage came out at 0.981.

On to A8C U46C, for which the self-cleavage is 0.979.

With A8G C63G, the self-cleavage turned out to be 0.164.

Turning to A8G C63A, the self-cleavage was determined as 0.253.

On to A8G C63U, for which the self-cleavage came to 0.612.

Turning to A8G U67G, the self-cleavage came out at 0.64.

As to A8G U67C, the self-cleavage came to 0.573.

With A8C G11C, the self-cleavage was 0.779.

With A8C G11U, the self-cleavage came to 0.768.

A8C G11A: the self-cleavage worked out at 0.923.

In the case of A8U A60C, the self-cleavage was found to be 0.432.

Regarding A8U A60G, the self-cleavage was found to be 0.939.

Turning to A8U A60U, the self-cleavage amounted to 0.457.

On to A8U G31A, for which the self-cleavage was 0.925.

On to A8U G31U, for which the self-cleavage turned out to be 0.806.

A8U G31C: the self-cleavage was determined as 0.247.

Take A8U C45U: the self-cleavage worked out at 1.03.

As to A8C C12U, the self-cleavage worked out at 0.981.

For A8C C12G, the self-cleavage worked out at 0.798.

In the case of A8U G25C, the self-cleavage turned out to be 0.0896.

As for A8U G25A, the self-cleavage amounted to 0.179.

In the case of A8C G47A, the self-cleavage was determined as 1.02.

Turning to A8G C34G, the self-cleavage is 0.665.

For the variant A8G A15U, the self-cleavage stood at 0.144.

On to A8G A15C, for which the self-cleavage came out at 0.0691.

Consider A8G A10U, for which the self-cleavage came to 0.69.

Take A8G U21C: the self-cleavage came out at 0.584.

Consider A8G A16U, for which the self-cleavage is 0.457.

As to A8C G41U, the self-cleavage amounted to 0.78.

Regarding A8C G41A, the self-cleavage was found to be 0.89.

Consider A8U A51G, for which the self-cleavage came to 1.

As for A8U A51U, the self-cleavage was determined as 0.999.

Take A8U G56U: the self-cleavage was 0.972.

As for A8U G56A, the self-cleavage was found to be 0.957.

As for A8U G48C, the self-cleavage worked out at 0.994.

A8U G48A: the self-cleavage is 1.03.

For the variant A8U C57G, the self-cleavage worked out at 0.272.

For the variant A8C U49C, the self-cleavage came out at 1.

In the case of A8C U49G, the self-cleavage came out at 1.01.

In the case of A8C U49A, the self-cleavage was found to be 1.06.

Take A8U A52U: the self-cleavage amounted to 0.986.

In the case of A8U A52G, the self-cleavage stood at 1.03.

With A8U, the self-cleavage turned out to be 1.01.

For the variant A8G, the self-cleavage is 0.929.

With A8U G50A, the self-cleavage was determined as 1.03.

Consider A8U G50C, for which the self-cleavage worked out at 1.

As for A8C G19A, the self-cleavage was 0.189.

A8U G28C: the self-cleavage was 0.101.

Take A8C C39U: the self-cleavage was 0.947.

Consider A8C C39G, for which the self-cleavage is 0.927.

As for A8C C39A, the self-cleavage was found to be 0.848.

As for A8G U55G, the self-cleavage came out at 0.134.

In the case of A8G U55C, the self-cleavage was 0.282.

Turning to A8U C54A, the self-cleavage turned out to be 0.857.

As for A8U C54G, the self-cleavage was determined as 0.919.

Consider A8U C54U, for which the self-cleavage amounted to 1.03.

Take A8G G11U: the self-cleavage stood at 0.189.

On to A8G G11C, for which the self-cleavage came to 0.0914.

As to A8G G11A, the self-cleavage was determined as 0.26.

On to A8G C33U, for which the self-cleavage is 0.833.

In the case of A8G C33A, the self-cleavage was found to be 0.73.

Turning to A8U A10U, the self-cleavage was 0.998.

With A8G C39G, the self-cleavage was determined as 0.537.

Regarding A8G C39A, the self-cleavage stood at 0.242.

As for A8G G37C, the self-cleavage came to 0.123.

In the case of A8G C35A, the self-cleavage worked out at 0.217.

For the variant A8G C35G, the self-cleavage amounted to 0.341.

In the case of A8G U36A, the self-cleavage amounted to 0.135.

For the variant A8U C22G, the self-cleavage worked out at 0.133.

Consider A8U C22U, for which the self-cleavage is 0.203.

A8G U44C: the self-cleavage worked out at 0.55.

For A8G A13U, the self-cleavage is 0.0712.

Regarding A8G C12U, the self-cleavage is 0.444.

On to A8G C12A, for which the self-cleavage was determined as 0.175.

On to A8G C12G, for which the self-cleavage worked out at 0.133.

Take A8U C35A: the self-cleavage is 0.257.

With A8U C35U, the self-cleavage stood at 1.01.

In the case of A8G U20G, the self-cleavage amounted to 0.0536.

Regarding A8G U20C, the self-cleavage was 0.09.

For A8U C29U, the self-cleavage was 0.84.

As to A8U C29G, the self-cleavage turned out to be 0.183.

As to A8G C66G, the self-cleavage is 0.294.

On to A8G C66A, for which the self-cleavage amounted to 0.249.

Consider A8G C66U, for which the self-cleavage was 0.5.

Regarding A8U G37A, the self-cleavage was found to be 0.215.

Take A8U G37U: the self-cleavage worked out at 0.221.

Regarding A8C G30C, the self-cleavage stood at 0.758.

Regarding A8C G30U, the self-cleavage came out at 0.492.

Consider A8C G30A, for which the self-cleavage was found to be 0.951.

As for A8G G41U, the self-cleavage is 0.254.

Turning to A8G G41A, the self-cleavage stood at 0.222.

In the case of A8G G41C, the self-cleavage amounted to 0.304.

As for A8C G14A, the self-cleavage is 0.669.

On to A8C G14C, for which the self-cleavage was 0.528.

As to A8G G56U, the self-cleavage stood at 0.446.

Regarding A8G G56C, the self-cleavage turned out to be 0.233.

A8G G56A: the self-cleavage was found to be 0.562.

Consider A8C G37U, for which the self-cleavage amounted to 0.257.
